In patent publication US5622933A, “Multiple branch peptide constructions for use against HIV” (priority 1993, dated 1997):
Several values for one entry are separate records, joined by “and”; a condition that tells them apart may be missing. Equal entries are not always repeated. Entries after “also recorded” stand apart in the source; their conditions may differ. Ends that are not written are not given here.

Key:
[1] = test system: New Zealand rabbits; assay: Immunogenicity in rabbits (serum ELISA for anti MBPC.3 antibodies); format: in vivo, rabbit
Method: […] This procedure was repeated subcutaneously with incomplete Freud's adjuvant on days 30, 60, 90 and 120. Sera were tested by ELISA, looking for specific anti MBPC.3 antibodies. Data presented here is from the last serum samples (120+7 days).
[…] After saturation with 400 μL of casein (5 g/100 ml), different serum dilutions were added for 2 hours at 37° C. The controls were sera from non-immunized rabbits and mice. After rinsing (5×), 50 μl of 1:5000 of peroxidase-labeled swine anti-rabbit IgG or anti-mouse IgG (Dakopatts, Copenhagen, Denmark) were added for 1 hour at 37° C. After further rinsing (5×), 100 μl of ortho-phenylenediamine were added for 30 min in the dark at room temperature. The reaction was stopped by adding 50 μl of 4N sulfuric acid, and optical density (OD) ratios were determined at 492/620 nm.

[2] = test system: 8E5 cells; assay: Toxicity in the cell fusion test (MTT assay or trypan blue exclusion); format: cell-based; settings: 5 × 10^-5 M; listed as [RKSIHIGPGRAFYT]4 -MLC
[3] = test system: HIV-2; assay: Infection of human PBLs; format: cell-based; settings: MBPC 10^-5 M
Method: Peripheral blood lymphocytes (PBLs) were obtained from healthy donors, stimulated with phytohemagglutinin, and cultivated in RPMI 1640 containing 10% fetal calf serum and interleukin-2 (complete medium). Samples of 6×10^6 cells/ml were either treated or not treated with the indicated MBPC at a concentration of 10^-5 M and exposed to HIV-1 or HIV-2 (100 TCID50) for 1 hour at 37° C. in the continued presence of MBPCs. After thorough washing, PBLs were cultured in complete medium with 10^-5 M of the corresponding MBPC. The state of infection was assessed by determination of RT activity (for both HIV-1 and HIV-2 isolates) and HIV-1 p24^gag measurements (Coulter kit, cut-off 10 pg/ml) in the case of HIV-1 isolates 10 days post-infection. The MBPC treatment used were as follows: 1-none; 2- [GPGRAF]8 -MLC; 3-[[…]]4 -MLC; 4- [[…]]4 -MLC (a non-HIV related MBPC) (MLC indicates a core lysine structure). The results shown in FIGS. 2A-2C are representative of three separate experiments. The nature of the viral isolates used was checked by PCR (HIV-1 versus HIV-2 isolates) and RIPA for discriminating between HIV-1 (LAI) and HIV-1 (NDK).

(GPGRAF)8 -(K)4 -(K)2 -K-βA-OH [MBPC.3] was tested, and the “optical density (OD) ratio 492/620 nm (×10^3)” value ([1]; plate 1, rabbit serum 10^-2, coat 0.5 μg MBPC.3/ml) was 968 and 981, the “optical density (OD) ratio 492/620 nm (×10^3)” value ([1]; plate 1, rabbit serum 10^-2, coat 1 μg MBPC.3/ml) was 1280 and 1267 and the “optical density (OD) ratio 492/620 nm (×10^3)” value ([1]; plate 1, rabbit serum 10^-2, coat 5 μg MBPC.3/ml) was 2000. For the same substance, the “optical density (OD) ratio 492/620 nm (×10^3)” value ([1]; plate 1, rabbit serum 10^-2, coat 10 μg MBPC.3/ml) was 2000, the “optical density (OD) ratio 492/620 nm (×10^3)” value ([1]; plate 1, rabbit serum 10^-3, coat 0.5 μg MBPC.3/ml) was 318 and 296 and the “optical density (OD) ratio 492/620 nm (×10^3)” value ([1]; plate 1, rabbit serum 10^-3, coat 1 μg MBPC.3/ml) was 346 and 349. The “optical density (OD) ratio 492/620 nm (×10^3)” value ([1]; plate 1, rabbit serum 10^-3, coat 5 μg MBPC.3/ml) was 2000, the “optical density (OD) ratio 492/620 nm (×10^3)” value ([1]; plate 1, rabbit serum 10^-3, coat 10 μg MBPC.3/ml) was 2000 and the “optical density (OD) ratio 492/620 nm (×10^3)” value ([1]; plate 1, rabbit serum 10^-4, coat 0.5 μg MBPC.3/ml) was 145 and 140. For the same substance, the “optical density (OD) ratio 492/620 nm (×10^3)” value ([1]; plate 1, rabbit serum 10^-4, coat 1 μg MBPC.3/ml) was 182 and 193, the “optical density (OD) ratio 492/620 nm (×10^3)” value ([1]; plate 1, rabbit serum 10^-4, coat 5 μg MBPC.3/ml) was 796 and 809 and the “optical density (OD) ratio 492/620 nm (×10^3)” value ([1]; plate 1, rabbit serum 10^-4, coat 10 μg MBPC.3/ml) was 924 and 823. The “optical density (OD) ratio 492/620 nm (×10^3)” value ([1]; plate 2, rabbit serum 10^-2, coat 5 μg MBPC.3/ml) was 2000, the “optical density (OD) ratio 492/620 nm (×10^3)” value ([1]; plate 2, rabbit serum 10^-2, coat 10 μg MBPC.3/ml) was 2000 and the “optical density (OD) ratio 492/620 nm (×10^3)” value ([1]; plate 2, rabbit serum 10^-3, coat 0.5 μg MBPC.3/ml) was 197 and 181. For the same substance, the “optical density (OD) ratio 492/620 nm (×10^3)” value ([1]; plate 2, rabbit serum 10^-3, coat 5 μg MBPC.3/ml) was 2000, the “optical density (OD) ratio 492/620 nm (×10^3)” value ([1]; plate 2, rabbit serum 10^-3, coat 10 μg MBPC.3/ml) was 2000 and the “optical density (OD) ratio 492/620 nm (×10^3)” value ([1]; plate 2, rabbit serum 10^-4, coat 0.5 μg MBPC.3/ml) was 80 and 74. For the same substance, the “optical density (OD) ratio 492/620 nm (×10^3)” value ([1]; plate 2, rabbit serum 10^-4, coat 1 μg MBPC.3/ml) was 113 and 84, the “optical density (OD) ratio 492/620 nm (×10^3)” value ([1]; plate 2, rabbit serum 10^-4, coat 5 μg MBPC.3/ml) was 678 and 626 and the “optical density (OD) ratio 492/620 nm (×10^3)” value ([1]; plate 2, rabbit serum 10^-4, coat 10 μg MBPC.3/ml) was 734 and 689. The “optical density (OD) ratio 492/620 nm (×10^3)” value ([1]; plate 3, rabbit serum 10^-2, coat 0.5 μg MBPC.3/ml) was 416 and 287, the “optical density (OD) ratio 492/620 nm (×10^3)” value ([1]; plate 3, rabbit serum 10^-2, coat 1 μg MBPC.3/ml) was 402 and 401 and the “optical density (OD) ratio 492/620 nm (×10^3)” value ([1]; plate 3, rabbit serum 10^-2, coat 5 μg MBPC.3/ml) was 857 and 868. The “optical density (OD) ratio 492/620 nm (×10^3)” value ([1]; plate 3, rabbit serum 10^-2, coat 10 μg MBPC.3/ml) was 818 and 953, the “optical density (OD) ratio 492/620 nm (×10^3)” value ([1]; plate 3, rabbit serum 10^-3, coat 0.5 μg MBPC.3/ml) was 148 and 155 and the “optical density (OD) ratio 492/620 nm (×10^3)” value ([1]; plate 3, rabbit serum 10^-3, coat 1 μg MBPC.3/ml) was 168 and 150. For the same substance, the “optical density (OD) ratio 492/620 nm (×10^3)” value ([1]; plate 3, rabbit serum 10^-3, coat 5 μg MBPC.3/ml) was 323 and 314, the “optical density (OD) ratio 492/620 nm (×10^3)” value ([1]; plate 3, rabbit serum 10^-3, coat 10 μg MBPC.3/ml) was 342 and 328 and the “optical density (OD) ratio 492/620 nm (×10^3)” value ([1]; plate 3, rabbit serum 10^-4, coat 0.5 μg MBPC.3/ml) was 64 and 69. For the same substance, the “optical density (OD) ratio 492/620 nm (×10^3)” value ([1]; plate 3, rabbit serum 10^-4, coat 1 μg MBPC.3/ml) was 72 and 89, the “optical density (OD) ratio 492/620 nm (×10^3)” value ([1]; plate 3, rabbit serum 10^-4, coat 5 μg MBPC.3/ml) was 170 and 169 and the “optical density (OD) ratio 492/620 nm (×10^3)” value ([1]; plate 3, rabbit serum 10^-4, coat 10 μg MBPC.3/ml) was 191 and 184. For the same substance, the “optical density (OD) ratio 492/620 nm (×10^3)” value ([1]; plate 4, rabbit serum 10^-2, coat 0.5 μg MBPC.3/ml) was 424 and 425, the “optical density (OD) ratio 492/620 nm (×10^3)” value ([1]; plate 4, rabbit serum 10^-2, coat 1 μg MBPC.3/ml) was 419 and 447 and the “optical density (OD) ratio 492/620 nm (×10^3)” value ([1]; plate 4, rabbit serum 10^-2, coat 5 μg MBPC.3/ml) was 749 and 792. For the same substance, the “optical density (OD) ratio 492/620 nm (×10^3)” value ([1]; plate 4, rabbit serum 10^-2, coat 10 μg MBPC.3/ml) was 849 and 843, the “optical density (OD) ratio 492/620 nm (×10^3)” value ([1]; plate 4, rabbit serum 10^-3, coat 0.5 μg MBPC.3/ml) was 163 and 154 and the “optical density (OD) ratio 492/620 nm (×10^3)” value ([1]; plate 4, rabbit serum 10^-3, coat 1 μg MBPC.3/ml) was 221 and 151. The “optical density (OD) ratio 492/620 nm (×10^3)” value ([1]; plate 4, rabbit serum 10^-3, coat 5 μg MBPC.3/ml) was 310 and 304, the “optical density (OD) ratio 492/620 nm (×10^3)” value ([1]; plate 4, rabbit serum 10^-3, coat 10 μg MBPC.3/ml) was 332 and 314 and the “titers of anti-GPGRAF antibodies” value ([1]; rabbits injected) was “did not produce significant titers”.
With “(RKSIHIGPGRAFYT)4 -(K)2 -K-βA-OH (also: four copies on lysine core (K)2-K-βA-OH) [MBPC.5, tetradecapeptide MBPC]” the Toxicity [2] was “Toxic; also recorded: induced some toxicity” and the “potency for inhibition of HIV-2 infection, in words” value [3] was “less potent than [GPGRAF]8 -MLC”.
